Test results published in the RNAGym collection of RNA variant scans (doi:10.1093/molbev/msab373).

B1: Azoarcus group I ribozyme (parent)
chain: GUGCCUUGCGCCGGGAAACCACGCAAGGGAUGGUGUCAAAUUCGGCGAAACCUAAGCGCCCGCCCGGGCGUAUGGCAACGCCGAGCCAAGCUUCGGCGCCUGCGCCGAUGAAGGUGUAGAGACUAGACGGCACCCACCUAAGGCAAACGCUAUGGUGAAGGCAUAGUCCAGGGAGUGGCGAAAGUCACACAAACCGG

Variants of: B1
Test: reverse-splicing fitness (ratio to wild type); higher = more active; in vitro selection; Mg2+ level not given
Procedure, shortened: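 An in vitro group I ribozyme library with randomized positions was T7-transcribed and gel-purified. In triplicate, 10 pmol RNA in EPPS pH 7.5 was reacted with 50 pmoles of a 30-nt RNA substrate for 1 h at 37 °C across several added MgCl2 levels (1–48 mM), then stopped with EDTA. Products were reverse transcribed from a substrate-complementary primer, PCR-amplified and sequenced (HiSeq 4000). Fitness is a variant's read proportion after selection over that before, normalised to wild type.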

| Variant | reverse-splicing fitness |
| --- | --- |
| C82A A111U A120C A145G C150A C169A U176G | 0.0115 |
| C82A A111U A120C A145G C150A C169A U176C | 0.0279 |
| C82A A111U A120C A145G C150G U176G | 0.00733 |
| C82A A111U A120C A145G C150G U176C | 0.0126 |
| C82A A111U A120C A145G C150G U176A | 0.00848 |
| C82A A111U A120G A145C C150U C169U U176A | 0.0202 |
| C82A A111U A120C C150A U176C | 0.0239 |
| C82A A111U A120C C150A U176A | 0.0129 |
| C82A A111U A120C C150A U176G | 0.00881 |
| C82A A111U A120C A145G C150U U176G | 0.00822 |
| C82A A111U A120C A145G C150U U176C | 0.0246 |
| C82A A111U A120C A145G C150U U176A | 0.0126 |
| C82A A111U A120C A145U C150G C169A | 0.00962 |
| C82A A111U A120C A145U C150G C169G | 0.00869 |
| C82A A111U A120C A145U C150G C169U | 0.01 |
| C82A A111U A120C A145U C150U C169U U176A | 0.0157 |
| C82A A111U A120C A145U C150U C169U U176C | 0.0137 |
| C82A A111U A120C A145U C150U C169U U176G | 0.00816 |
| C82A A111U A120G A145C C150G C169G U176C | 0.00725 |
| C82A A111U A120G A145C C150G C169G U176G | 0.00452 |
| C82A A111U A120G A145C C150G C169G U176A | 0.00863 |

| Variant | reverse-splicing fitness |
| --- | --- |
| C82A A111U A120C U176C | 0.0279 |
| C82A A111U A120C U176G | 0.00616 |
| C82A A111U A120C U176A | 0.0152 |
| C82A A111U A120C C150A C169U U176A | 0.0186 |
| C82A A111U A120C C150A C169U U176C | 0.0167 |
| C82A A111U A120C C150A C169U U176G | 0.00905 |
| C82A A111G C150U U176G | 0.0264 |
| C82A A111G C150U U176A | 0.0842 |
| C82A A111G C150U U176C | 0.127 |
| C82A A111U A120C C150G U176C | 0.0098 |
| C82A A111U A120C C150G U176G | 0.00421 |
| C82A A111U A120C C150G U176A | 0.00671 |
| C82A A111G C150U C169U | 0.0122 |
| C82A A111G C150U C169A | 0.011 |
| C82A A111G C150U C169G | 0.00992 |
| C82A A111U A120C A145G C150A U176G | 0.00997 |
| C82A A111U A120C A145G C150A U176A | 0.0105 |
| C82A A111U A120C A145G C150A U176C | 0.0241 |
| C82A A111U A120C A145U C150G U176A | 0.00752 |
| C82A A111U A120C A145U C150G U176C | 0.00808 |
| C82A A111U A120C A145U C150G U176G | 0.00439 |
